# B1: hCD221ug-80 (VHH)
# VHH: QVQLVESGGGLVQPGGSLRLSCTFSGFTLDYYVMVWFRQAPGKEREAVSCITSDGVTYYADSVKGRFTISRDNAKNTVYLQMNRVKPEDTAVYYCAVDKPFYDGGIQYTCPVDFDSWGQGAQVTVSS
# modifications: single biotin at the VHH C-terminal (biotinylation signal sequence)
# notes: llama VHH, expressed in E. coli TG1, IMAC purified, monomeric SEC fraction; also called VHH # 1; 2-hCD22 1ug-80
# B2: hCD221ug-13 (VHH)
# VHH: QVQLVESGGGLVQAGDSLRLSCAGSGGSFSSVTMAWFRQAPGKDREFVAAITWSSPSTYYADSVKGRFTISRDNAKNTVYLQMNSLKPEDTAVYYCAGGRTGRGTSADTDEYNYWGQGTQVTVSS
# modifications: single biotin at the VHH C-terminal (biotinylation signal sequence)
# notes: llama VHH, expressed in E. coli TG1, IMAC purified, monomeric SEC fraction; also called VHH # 21; 1-hCD22 1ug-13
# B3: hCD22pas-32 (VHH)
# VHH: QVQLVESGGGLVQAGGSLRLSCAVSGRIFRSYVLGWFRQAPGKERELVARIGWSDTYYADSVKGRFTISRDNAKNTVDLQMNSLKPEDTAVYYCAANSPPYGPQRDEFGYWGQGTQVTVSS
# modifications: single biotin at the VHH C-terminal (biotinylation signal sequence)
# notes: llama VHH, expressed in E. coli TG1, IMAC purified, monomeric SEC fraction; also called VHH # 15; 6-hCD22 pas-32
# Legend:
# [1] = target: T1, hCD22 fragment Bin 1, IVR1 (aa1-135), displayed on yeast cells (human, UniProt P20273 20-154); test: yeast display cell ELISA, biotinylated sdAb 250 nM
# T1 construct: range 1-135; Range is counted on the mature ECD, not on the UniProt entry; on P20273 it would be 20-154 (my arithmetic); also called CD22 Sub-Domain 1; not shown: Aga2-HA display fusion partner of vector pPNL6; MYC tag
# T1 sequence (looked up): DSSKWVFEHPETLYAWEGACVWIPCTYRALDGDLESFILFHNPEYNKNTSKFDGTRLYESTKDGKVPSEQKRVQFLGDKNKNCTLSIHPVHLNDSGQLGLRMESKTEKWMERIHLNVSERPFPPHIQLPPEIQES
# Protocol: (§1) The YSD vector (pPNL6) was from The Pacific Northwest National Laboratory, USA. […] The HRP activity was assayed with substrate TMB (tetramethyl benzidine) according to the manufacture’s conditions and read at OD₄₅₀.
# (§2) The wells that gave rise to OD₄₅₀ above 0.25 were highlighted, indicating significant antibody-antigen interactions. All the sdAbs tested except hCd22_1ug-14 were assigned to specific Bin(s).
# [2] = target: T1, hCD22 fragment Bin 1, IVR1 (aa1-135), …; test: yeast display cell ELISA, heat denatured cells (80 C, 30 min)
# Protocol: as §1
# (§3) Table 7 depicts the assessment of the nature of the epitopes of CD22 sdAbs to determine if the epitopes for the sdAbs are continuous (linear) or non-continuous (conformational). […] The binding of each sdAb to native and denatured CD22 fragments was measured as OD₄₅₀, and the ratio of the binding to denatured CD22 to non-denatured CD22 was calculated, with the ratio ≥ 0.5 indicative linear (L), and the ratio < 0.5 indicative of conformational (C) epitopes.
# [3] = target: T1, hCD22 fragment Bin 1, IVR1 (aa1-135), …; test: yeast display cell ELISA, native cells
# Protocol: as §1, §3
# [4] = target: T1, hCD22 fragment Bin 1, IVR1 (aa1-135), …; test: yeast display cell ELISA, OD on denatured over non-denatured CD22 fragment
# Protocol: as §1, §3
# [5] = target: T2, hCD22 fragment Bin 4, IVR4 (aa303-405), displayed on yeast cells (human, UniProt P20273 322-424); test: yeast display cell ELISA, biotinylated sdAb 250 nM
# T2 construct: Range is counted on the mature ECD, not on the UniProt entry; on P20273 it would be 322-424 (my arithmetic); also called CD22 Sub-Domain 4; not shown: Aga2-HA display fusion partner of vector pPNL6; MYC tag
# T2 sequence (looked up): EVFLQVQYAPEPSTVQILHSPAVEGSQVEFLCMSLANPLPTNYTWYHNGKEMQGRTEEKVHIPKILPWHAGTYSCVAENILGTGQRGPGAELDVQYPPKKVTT
# Protocol: as §1, §2
# [6] = target: T2, hCD22 fragment Bin 4, IVR4 (aa303-405), …; test: yeast display cell ELISA, heat denatured cells (80 C, 30 min)
# Protocol: as §1, §3
# [7] = target: T2, hCD22 fragment Bin 4, IVR4 (aa303-405), …; test: yeast display cell ELISA, native cells
# Protocol: as §1, §3
# [8] = target: T2, hCD22 fragment Bin 4, IVR4 (aa303-405), …; test: yeast display cell ELISA, OD on denatured over non-denatured CD22 fragment
# Protocol: as §1, §3
# [9] = target: T3, full-length hCD22-ECD (668aa) displayed on yeast cells (human, UniProt P20273 20-687); test: yeast display cell ELISA, heat denatured cells (80 C, 30 min)
# T3 construct: extracellular domain; Yeast surface display fusion Aga2-HA-(insert)-MYC; also called Bin 8; CD22-ECD Full lenght; not shown: Aga2-HA display fusion partner of vector pPNL6; MYC tag
# T3 sequence (looked up): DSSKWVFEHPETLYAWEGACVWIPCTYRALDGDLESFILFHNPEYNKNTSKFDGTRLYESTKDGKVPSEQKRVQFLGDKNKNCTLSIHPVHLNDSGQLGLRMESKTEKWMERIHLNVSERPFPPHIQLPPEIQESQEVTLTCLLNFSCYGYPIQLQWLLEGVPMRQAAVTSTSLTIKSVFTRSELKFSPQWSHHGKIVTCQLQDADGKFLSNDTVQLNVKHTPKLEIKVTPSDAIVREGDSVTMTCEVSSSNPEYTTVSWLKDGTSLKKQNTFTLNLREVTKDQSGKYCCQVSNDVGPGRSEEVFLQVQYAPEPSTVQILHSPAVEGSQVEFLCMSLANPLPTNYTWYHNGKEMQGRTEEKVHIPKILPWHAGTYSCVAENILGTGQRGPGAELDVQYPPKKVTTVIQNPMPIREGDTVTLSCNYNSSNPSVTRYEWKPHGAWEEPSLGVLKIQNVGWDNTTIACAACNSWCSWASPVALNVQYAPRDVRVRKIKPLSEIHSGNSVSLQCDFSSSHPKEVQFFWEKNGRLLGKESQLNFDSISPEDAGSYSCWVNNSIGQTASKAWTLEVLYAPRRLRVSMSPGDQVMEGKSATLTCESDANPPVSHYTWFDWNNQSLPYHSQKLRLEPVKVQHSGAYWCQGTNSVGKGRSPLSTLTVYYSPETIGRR
# Protocol: as §1, §3
# [10] = target: T3, full-length hCD22-ECD (668aa) displayed …; test: yeast display cell ELISA, OD on denatured over non-denatured CD22 ECD
# Protocol: as §1, §3
# [11] = target: T3, full-length hCD22-ECD (668aa) displayed …; test: yeast display cell ELISA, native cells
# Protocol: as §1, §3
binder,measurement,setting,value
B1,OD450,[1],2.03 OD450
same,Heat Inactivated CD22 OD,[2],1.77 OD450
same,Non denatured CD22 OD,[3],2.32 OD450
same,CD22 Ratio (D/ND),[4],0.762
B2,OD450,[5],0.752 OD450
same,Heat Inactivated CD22 OD,[6],0.686 OD450
same,Non denatured CD22 OD,[7],1.23 OD450
same,CD22 Ratio (D/ND),[8],0.557
B3,Heat Inactivated CD22 OD,[9],0 OD450
same,CD22 Ratio (D/ND),[10],0
same,Non denatured CD22 OD,[11],0.789 OD450

# From patent US20230265185A1 (NATIONAL RESEARCH COUNCIL OF CANADA, published 2023)
